Reference: article PMC8081927 (The Journal of Biological Chemistry, 2021)
Where a chain is given by its changes, count along the chain named. Values joined by “and” are separate entries in the source; they are usually repeats but may differ in a detail not shown here. Identical values can stand only once. Values belong to the binder of their own block, whether it stands above or below them.

Experiments:
Aβ11-42 fibrils = target: T1, Aβ11-42 fibrils (Homo sapiens (species , …, UniProt P05067)); experiment: far-Western, overlay or dot blot; immunodot blot: fibrils of Aβ1-42 and N-terminal truncations spotted on nitrocellulose at equal Thioflavin T fluorescence; antibodies at 10 nM in PBST with 1% milk; anti-human Fc HRP, 3 min exposure; settings: both partners purified
T1 construct: amyloid beta peptide with N-terminal deletion, Aβ11-42; Amyloid fibrils; source: synthetic peptide, bought: Anaspec; assembled into fibrils, purified by ultracentrifugation
T1 chain: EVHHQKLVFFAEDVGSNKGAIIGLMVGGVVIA

Aβ4-42 fibrils = target: T2, Aβ4-42 fibrils (Homo sapiens (species , …, UniProt P05067)); experiment: as above; settings: both partners purified
T2 construct: amyloid beta peptide with N-terminal deletion, Aβ4-42; Amyloid fibrils; source: synthetic peptide, bought: Bachem; assembled into fibrils, purified by ultracentrifugation

Aβ3-42 fibrils = target: T3, Aβ3-42 fibrils (Homo sapiens (species , …, UniProt P05067)); experiment: as above; settings: both partners purified
T3 construct: amyloid beta peptide with N-terminal deletion, Aβ3-42; Amyloid fibrils; also called fibrils without the first two residues; source: synthetic peptide, bought: Bachem; assembled into fibrils, purified by ultracentrifugation

Aβ5-42 fibrils = target: T4, Aβ5-42 fibrils (Homo sapiens (species , …, UniProt P05067)); experiment: as above; settings: both partners purified
T4 construct: amyloid beta peptide with N-terminal deletion, Aβ5-42; Amyloid fibrils; source: synthetic peptide, bought: Bachem; assembled into fibrils, purified by ultracentrifugation

Aβ2-42 fibrils = target: T5, Aβ2-42 fibrils (Homo sapiens (species , …, UniProt P05067)); experiment: as above; settings: both partners purified
T5 construct: amyloid beta peptide with N-terminal deletion, Aβ2-42; Amyloid fibrils; also called fibrils without the first residue; source: synthetic peptide, bought: Bachem; assembled into fibrils, purified by ultracentrifugation

Aβ1-42 fibrils [1] = target: T6, Aβ1-42 fibrils (Homo sapiens (species , …, UniProt P05067, biotin on 1% of the peptides in the fibrils for the bead assays; unlabeled fibrils on the blots); experiment: flow cytometry on beads; Aβ fibrils (1% biotinylated, 1 μM) immobilised on streptavidin Dynabeads, blocked with 10% milk; antibody dilutions in PBSB with 1% milk, 3 h, 25 °C; detected with goat anti-human Fc AF647; apparent affinity (EC50); settings: both partners purified
T6 construct: amyloid beta peptide 1-42 (Aβ1-42), cut product of the amyloid precursor protein; also called Aβ fibrils; Aβ42 fibrils; source: synthetic peptide, bought: Anaspec; assembled into fibrils at 37 °C with 10% fibril seeds, purified by ultracentrifugation

[2] = target: T7, Aβ aggregates formed in vivo in 5xFAD transgenic mouse brain (human); experiment: far-Western, overlay or dot blot; immunodot blot: brain extracts (7 μg total protein) of 5xFAD and wild-type mice spotted on nitrocellulose; antibodies at 50 nM in TBST with 1% milk, overnight, 4 °C; settings: one partner purified
T7 construct: Aβ derived from human amyloid precursor protein (APP) expressed in 5xFAD mice; the APP transgene carries the Swedish (K670N/M671L), Florida (I716V) and London (V717I) mutations; The target stands in a brain homogenate or tissue section, not as a pure peptide; also called 5xFAD samples; Aβ plaques

disaggregated Aβ1-42 = target: T8, disaggregated Aβ1-42 (Homo sapiens (species , …, UniProt P05067)); experiment: far-Western, overlay or dot blot; immunodot blot: disaggregated Aβ and fibrils of Aβ, IAPP and α-synuclein spotted on nitrocellulose; antibodies at 10 nM in PBST with 1% milk, room temperature, 3 h; anti-human Fc HRP, X-ray film, 30 s or 45 min exposure; settings: both partners purified
T8 construct: amyloid beta peptide 1-42 (Aβ1-42), cut product of the amyloid precursor protein; also called disaggregated (D) Aβ; disaggregated Aβ42; source: synthetic peptide, bought: Anaspec; dissolved in HFIP, then 50 mM NaOH, ultracentrifuged, neutralised

Aβ1-42 fibrils [3] = target: T6, Aβ1-42 fibrils; experiment: as above; settings: both partners purified

- binding result (Aβ11-42 fibrils): binds
- binding result (Aβ4-42 fibrils): binds
- binding result (Aβ3-42 fibrils): binds
- binding result (Aβ5-42 fibrils): binds
- binding result (Aβ2-42 fibrils): binds
B1: crenezumab (variable domains grafted onto an IgG1 scaffold with a human Fc fragment) (antibody, V domains shown)
VH: EVQLVESGGGLVQPGGSLRLSCAASGFTFSSYGMSWVRQAPGKGLELVASINSNGGSTYYPDSVKGRFTISRDNAKNSLYLQMNSLRAEDTAVYYCASGDYWGQGTTVTVSS
VL: DIVMTQSPLSLPVTPGEPASISCRSSQSLVYSNGDTYLHWYLQKPGQSPQLLIYKVSNRFSGVPDRFSGSGSGTDFTLKISRVEAEDVGVYYCSQSTHVPWTFGQGTKVEIK
notes: heavy-chain variable domain of crenezumab; light-chain variable domain of crenezumab; IgG1 here; source: HEK293-6E expression plasmids, transfected cells, purified from the medium (Protein A)

- EC50 (Aβ1-42 fibrils [1]): 99 nM
B2: AF1 (scFv, V domains shown)
VH: EVQLVESGGGLVQPGGSLRLSCAASGFNIKDTYIHWVRQAPGKGLEWVARIYPTNGYTRYADSVKGRFTISADTSKNTAYLQMNSLRAEDTAVYYCARDGYDGSYFVGYDYNDFYDYWGQGTLVTVSS
VL: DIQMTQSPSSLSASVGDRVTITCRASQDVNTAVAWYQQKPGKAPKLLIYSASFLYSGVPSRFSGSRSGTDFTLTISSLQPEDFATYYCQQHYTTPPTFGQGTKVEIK
notes: scFv-Fc fusion protein; also called lead antibody; parental antibody; source: HEK293-6E expression plasmids, transfected cells, purified from the medium (Protein A)

- binding result [2]: binds
- binding result (disaggregated Aβ1-42): binds
- binding result (Aβ1-42 fibrils [3]): binds
B3: clone 93 (scFv, V domains shown)
VH: B2 VH with T54S, D62G
VL: DIQMTQSPSSLSASVGDRVTITCRASQNVYNAVTWYQQKPGKAPKLLIYSASFLYSGVPSRFSGSRSGTDFTLTISSLQPEDFATYYCQQHNTYPPTFGQGTKVEIK
notes: scFv-Fc fusion protein; source: HEK293-6E expression plasmids, transfected cells, purified from the medium (Protein A)

- EC50 (Aβ1-42 fibrils [1]): 8 nM and 18 nM
B4: clone 97 (scFv, V domains shown)
VH: B2 VH with T54A, N55S, Y57A
VL: B3 VL with Y30A, N31Y, N92S
notes: scFv-Fc fusion protein; Parent of 97A3; source: HEK293-6E expression plasmids, transfected cells, purified from the medium (Protein A)
